Results on one molecule are retold here after article PMC10126545.

The target in assay [1] is COBRA P1 HA N127D mutant, CHO expressed, for binding assays. In words: BLI; Octet RED384; HA loaded on anti-Penta-His biosensors (10 μg/mL), Fab 1F8 15 nM to 0.556 nM in solution; PBS, 1% BSA, 0.05% Tween 20; 30 °C; 1:1 model with mass transport limitation; mean of two independent experiments.
The target of assay [2] is COBRA P1 HA wild type, CHO expressed, for binding assays. The assay is described as above.

B1: Fab 1F8 (recombinant Fab of the P1-elicited mouse monoclonal antibody 1F8) (Fab, V domains shown)
VH: QVQLQQSGAELMKPGASVKISCKATGYTFSSYWIEWVKQRPGHGLEWIGEILPGSGRTNYDERFKGKATFTADTSSNTAYMQLSSLTSEDSAVYYCARPRIYGMDYWGQGTSVTVSS
VL: DIVLTQSPASLAVSLGQRATISCKASQSVDFDGDTYMSWYQQKPGQPPKLLIYAASKLESGIPARFSGSGSGTDFTLNIHPVEEEDAATYFCQQSNEDPWTFGGGTKLEIK
As for B1, the Kd in assay [1] turned out to be 0.86 nM; in assay [2], 2.95 nM.
